Substitutions are numbered along the chain they refer to. One block for each binder: values may come before it.
Key:
human PD-1-His (human) [1] = target: human PD-1-His (human) (UniProt Q15116); experiment: Octet
human PD-1-His (human) [2] = target: human PD-1-His (human) (UniProt Q15116); experiment: Octet; in the context of PD-1-targeted IL-15/Rα-Fc fusion; reference mAb C H1L1
human PD-1-His (human) [3] = target: human PD-1-His (human) (UniProt Q15116); experiment: Octet tandem epitope binning: PD-1-His on HIS1K biosensor, first dip chmAb A (row), second dip 1C11-based mAb; normalized to HBS-EP first dip
human PD-1-His (human) [4] = target: human PD-1-His (human) (UniProt Q15116); experiment: Octet tandem epitope binning: PD-1-His on HIS1K biosensor, first dip PDL1-Fc (row), second dip 1C11-based mAb; normalized to HBS-EP first dip
human PD-1-His (human) [5] = target: human PD-1-His (human) (UniProt Q15116); experiment: Octet tandem epitope binning: PD-1-His on HIS1K biosensor, first dip HBS-EP buffer (row; the reference of the normalization), second dip 1C11-based mAb
human PD-1-His (human) [6] = target: human PD-1-His (human) (UniProt Q15116); experiment: Octet tandem epitope binning: PD-1-His on HIS1K biosensor, first dip 1C11-based mAb (row), second dip 1C11-based mAb; normalized to HBS-EP first dip
human PD-1-His (human) [7] = target: human PD-1-His (human) (UniProt Q15116); experiment: Octet tandem epitope binning: PD-1-His on HIS1K biosensor, first dip XENP21461 (row), second dip 1C11-based mAb; normalized to HBS-EP first dip
human PD-1-His (human) [8] = target: human PD-1-His (human) (UniProt Q15116); experiment: Octet tandem epitope binning: PD-1-His on HIS1K biosensor, first dip XENP16432 (row), second dip 1C11-based mAb; normalized to HBS-EP first dip
human PD-1-His (human) [9] = target: human PD-1-His (human) (UniProt Q15116); experiment: Octet tandem epitope binning: PD-1-His on HIS1K biosensor, first dip chmAb B (row), second dip 1C11-based mAb; normalized to HBS-EP first dip

Sequence of human PD-1-His (human) (Q15116 25-167 limits assumed): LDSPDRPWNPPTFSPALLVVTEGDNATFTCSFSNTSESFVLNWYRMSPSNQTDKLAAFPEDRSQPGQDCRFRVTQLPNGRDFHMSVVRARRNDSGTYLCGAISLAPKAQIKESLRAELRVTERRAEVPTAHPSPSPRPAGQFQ

- Kd (human PD-1-His (human) [1]): 2.29 nM
- koff (human PD-1-His (human) [1]): 0.00017 s⁻¹
- kon (human PD-1-His (human) [1]): 74400 M⁻¹ s⁻¹
B1: mAb C H1.19_L1.1 (in the context of PD-1-targeted IL-15/Rα-Fc fusion) (Fc fusion, part only; not given: IL-15/Rα-Fc chain, constant regions, not shown: another chain or arm of the molecule; a dimerising Fc or GST; small tags and cut ends)
VH: EVQLVESGGGLVQPGGSLRLSCAASGFTFSSLGMHWVRQAPGKGLEWVSYISSGSSIIYYADSVKGRFTISRDNAKNSLYLQMNSLRAEDTAVYYCARGGRLVWSPDYWGQGTLVTVSS
VL: DIVMTQSPDSLAVSLGERATINCKSSQSLLHSGNQKNYLTWYQQKPGQPPKLLIYWASTRESGVPDRFTGSGSGTDFTLTISSLQAEDVAVYYCQNDYSYPFTFGSGTKLEIK

- fold improvement in KD over wild-type (human PD-1-His (human) [2]): 100 fold
- Kd (human PD-1-His (human) [1]): 0.543 nM
- koff (human PD-1-His (human) [1]): 7.88e-05 s⁻¹
- kon (human PD-1-His (human) [1]): 145000 M⁻¹ s⁻¹
B2: mAb C H1.132_L1.140 (in the context of PD-1-targeted IL-15/Rα-Fc fusion) (Fc fusion, part only; not given: IL-15/Rα-Fc chain, constant regions, not shown: another chain or arm of the molecule; a dimerising Fc or GST)
VH: B1 VH with L32F, R101W
VL: B1 VL with K36Y, S99T

- fold improvement in KD over wild-type (human PD-1-His (human) [2]): 36 fold
- Kd (human PD-1-His (human) [1]): 1.62 nM
- koff (human PD-1-His (human) [1]): 0.000122 s⁻¹
- kon (human PD-1-His (human) [1]): 74800 M⁻¹ s⁻¹
B3: mAb C H1_L1.140 (in the context of PD-1-targeted IL-15/Rα-Fc fusion) (Fc fusion, part only; not given: IL-15/Rα-Fc chain, constant regions, not shown: another chain or arm of the molecule; a dimerising Fc or GST; small tags and cut ends)
VH: B1 VH with L32F
VL: B1 VL with K36Y, S99T

- fold improvement in KD over wild-type (human PD-1-His (human) [2]): 100 fold
- Kd (human PD-1-His (human) [1]): 0.624 nM
- koff (human PD-1-His (human) [1]): 7.88e-05 s⁻¹
- kon (human PD-1-His (human) [1]): 126000 M⁻¹ s⁻¹
B4: mAb C H1.175_L1.140 (in the context of PD-1-targeted IL-15/Rα-Fc fusion) (Fc fusion, part only; not given: IL-15/Rα-Fc chain, constant regions, not shown: another chain or arm of the molecule; a dimerising Fc or GST)
VH: B1 VH with S53G, R101W
VL: B1 VL with K36Y, S99T

- normalized BLI-response (human PD-1-His (human) [3]): 0.966
- normalized BLI-response (human PD-1-His (human) [4]): 0.621
- normalized BLI-response (human PD-1-His (human) [5]): 1
- normalized BLI-response (human PD-1-His (human) [6]): 0.0987
- normalized BLI-response (human PD-1-His (human) [7]): 0.405
- normalized BLI-response (human PD-1-His (human) [8]): 0.29
- normalized BLI-response (human PD-1-His (human) [9]): 0.253
B5: 1C11-based mAb (antibody, from another filing, V domains shown)
VH: QIQLVQSGPELKKPGETVKISCRASGYTFTHYGMNWVKQAPGKGLKWMGWINTYTGEPTYADDFKGRFAFSLETSASTAYLQINNLKNEDTATYFCARDYYGSSPYWGQGTTLTVSS
VL: DVLMTQTPLSLPVSLGDQASISCRSSQSIVHSNGNTYLEWYLQKPGQSPKLLIYKVSNRFSGVPDRFSGSGSGTDFTLKISRVEAEDLGVYYCFQGSHVPNTFGGGTKLEIKR
